Experimental data: patent publication US12281147

Experiments:
[1] = molecular target: human IL-21R (human) (UniProt Q9HBE5); test: AlphaSeq yeast mating assay, pH 5 media
[2] = molecular target: human IL-21R (human) (UniProt Q9HBE5); test: AlphaSeq yeast mating assay, unbuffered media
[3] = molecular target: human IL-21R (human) (UniProt Q9HBE5); test: AlphaSeq yeast mating assay, pH 6 media
[4] = molecular target: human IL-21R (human) (UniProt Q9HBE5); test: AlphaSeq yeast mating assay, pH 7 media
[5] = molecular target: human interleukin 21 receptor (IL-21R) (human) (UniProt Q9HBE5); test: AlphaSeq yeast mating, unbuffered media
[6] = molecular target: wild-type human IL-21R (human) (UniProt Q9HBE5); test: AlphaSeq yeast mating assay, pH 5 media
[7] = molecular target: wild-type human IL-21R (human) (UniProt Q9HBE5); test: AlphaSeq yeast mating assay, unbuffered media

Kd [1] | Kd [2] | Kd [3] | Kd [4] | Kd [5] | Kd [6] | Kd [7] | Substance
150 µM | 330 µM |  |  |  |  |  | IL-21_M39E (from UniProt Q9HBE4 32-152) (ligand)
1.5 µM | 110 µM | 0.55 µM |  |  |  |  | IL-21_I37E (from UniProt Q9HBE4 32-152) (ligand)
 | 150 µM | 0.094 µM | 0.25 µM |  |  |  | IL-21_V98K (from UniProt Q9HBE4 32-152) (ligand)
 | 640 µM |  | 0.053 µM |  |  |  | IL-21_V46T (from UniProt Q9HBE4 32-152) (ligand)
0.14 µM | 240 µM | 0.052 µM | 0.24 µM |  |  |  | IL-21_D44A (from UniProt Q9HBE4 32-152) (ligand)
 |  |  |  | 46 µM |  |  | IL-21_S77R (from UniProt Q9HBE4 32-152) (ligand)
 | 260 µM |  | 0.24 µM |  |  |  | IL-21_I95K (from UniProt Q9HBE4 32-152) (ligand)
0.027 µM | 2.7 µM | 0.012 µM | 0.028 µM |  |  |  | IL-21_Q32K (from UniProt Q9HBE4 33-152) (ligand)
3.3 µM | 95 µM | 0.19 µM | 0.12 µM |  |  |  | IL-21_I37K (from UniProt Q9HBE4 32-152) (ligand)
 | 2.7 µM |  | 0.088 µM |  |  |  | IL-21_V57L (from UniProt Q9HBE4 32-152) (ligand)
0.046 µM | 2.4 µM |  |  |  |  |  | IL-21_E93T (from UniProt Q9HBE4 32-152) (ligand)
 |  |  |  | 27 µM |  |  | IL-21_K131M (from UniProt Q9HBE4 32-152) (ligand)
 | 1000 µM | 260 µM | 71 µM |  |  |  | IL-21_V46Q (from UniProt Q9HBE4 32-152) (ligand)
 | 1.4 µM |  | 0.24 µM |  |  |  | IL-21_P108D (from UniProt Q9HBE4 32-152) (ligand)
 | 2.5 µM | 0.43 µM | 0.081 µM |  |  |  | IL-21_S109M (from UniProt Q9HBE4 32-152) (ligand)
 | 890 µM | 30 µM | 10 µM |  |  |  | IL-21_W73K (from UniProt Q9HBE4 32-152) (ligand)
0.058 µM | 1.5 µM | 0.02 µM |  |  |  |  | IL-21_I43L (from UniProt Q9HBE4 32-152) (ligand)
75 µM | 340 µM |  |  |  |  |  | IL-21_F76T (from UniProt Q9HBE4 32-152) (ligand)
 | 2.8 µM |  | 0.55 µM |  |  |  | IL-21_P108E (from UniProt Q9HBE4 32-152) (ligand)
53 µM | 150 µM | 2 µM |  |  |  |  | IL-21_I95H (from UniProt Q9HBE4 32-152) (ligand)
0.056 µM | 0.96 µM | 0.021 µM | 0.059 µM |  |  |  | IL-21_Q150D (from UniProt Q9HBE4 32-152) (ligand)
 | 110 µM |  | 0.24 µM |  |  |  | IL-21_Y52N (from UniProt Q9HBE4 32-152) (ligand)
16 µM | 240 µM | 0.53 µM | 0.32 µM |  |  |  | IL-21_I37S (from UniProt Q9HBE4 32-152) (ligand)
 |  |  |  |  | 0.11 µM | 3.1 µM | IL-21_M36T (from UniProt Q9HBE4 32-152) (ligand)
100 µM | 270 µM | 6.9 µM |  |  |  |  | IL-21_F76E (from UniProt Q9HBE4 32-152) (ligand)

Kd [1] | Kd [2] | Kd [3] | Kd [4] | Kd [5] | Kd [6] | Kd [7] | Substance
340 µM | 730 µM |  | 28 µM |  |  |  | IL-21_V46K (from UniProt Q9HBE4 32-152) (ligand)
0.062 µM | 2.4 µM | 0.015 µM | 0.035 µM |  |  |  | IL-21_F60H (from UniProt Q9HBE4 32-152) (ligand)
 | 250 µM |  | 7 µM |  |  |  | IL-21_R38K (from UniProt Q9HBE4 32-152) (ligand)
57 µM | 150 µM |  | 0.33 µM |  |  |  | IL-21_W73G (from UniProt Q9HBE4 32-152) (ligand)
 | 2.5 µM |  | 0.035 µM |  |  |  | IL-21_M39I (from UniProt Q9HBE4 32-152) (ligand)
 | 2.5 µM | 0.062 µM |  |  |  |  | IL-21_N51V (from UniProt Q9HBE4 32-152) (ligand)
82 µM | 170 µM |  |  |  |  |  | IL-21_I37G (from UniProt Q9HBE4 32-152) (ligand)
11 µM | 110 µM |  | 0.12 µM |  |  |  | IL-21_P62V (from UniProt Q9HBE4 32-152) (ligand)
 | 250 µM |  | 12 µM |  |  |  | IL-21_L42K (from UniProt Q9HBE4 32-152) (ligand)
72 µM | 330 µM | 2 µM | 0.53 µM |  |  |  | IL-21_F79Y (from UniProt Q9HBE4 32-152) (ligand)
 |  |  |  | 15 µM |  |  | IL-21_D33T (from UniProt Q9HBE4 32-152) (ligand)
0.047 µM | 1.4 µM | 0.02 µM | 0.056 µM |  |  |  | IL-21_V53S (from UniProt Q9HBE4 32-152) (ligand)
 | 270 µM | 5.7 µM | 3 µM |  |  |  | IL-21_I96P (from UniProt Q9HBE4 32-152) (ligand)
 | 800 µM | 76 µM |  |  |  |  | IL-21_M39D (from UniProt Q9HBE4 32-152) (ligand)
0.1 µM | 2.8 µM |  | 0.027 µM |  |  |  | IL-21_P62S (from UniProt Q9HBE4 32-152) (ligand)
52 µM | 170 µM | 2.7 µM |  |  |  |  | IL-21_F79D (from UniProt Q9HBE4 32-152) (ligand)
600 µM | 540 µM |  |  |  |  |  | IL-21_L49E (from UniProt Q9HBE4 32-152) (ligand)
 | 330 µM | 5 µM | 1.2 µM |  |  |  | IL-21_I45G (from UniProt Q9HBE4 32-152) (ligand)
 | 340 µM | 2.8 µM |  |  |  |  | IL-21_Y52K (from UniProt Q9HBE4 32-152) (ligand)
 |  |  |  |  | 0.081 µM | 3 µM | IL-21_R139S (from UniProt Q9HBE4 32-152) (ligand)
 |  |  |  | 31 µM |  |  | IL-21_V53E (from UniProt Q9HBE4 32-152) (ligand)
 | 270 µM | 12 µM |  |  |  |  | IL-21_R38Q (from UniProt Q9HBE4 32-152) (ligand)
 |  |  |  |  | 0.039 µM | 7.9 µM | IL-21_A112R (from UniProt Q9HBE4 32-152) (ligand)
580 µM | 660 µM |  |  |  |  |  | IL-21_Q80D (from UniProt Q9HBE4 32-152) (ligand)
4.4 µM | 69 µM |  | 0.11 µM |  |  |  | IL-21_Y52H (from UniProt Q9HBE4 32-152) (ligand)

Kd [1] | Kd [2] | Kd [3] | Kd [4] | Kd [5] | Kd [6] | Kd [7] | Substance
270 µM | 270 µM | 27 µM |  |  |  |  | IL-21_V53P (from UniProt Q9HBE4 32-152) (ligand)
 | 160 µM | 11 µM |  |  |  |  | IL-21_I96A (from UniProt Q9HBE4 32-152) (ligand)
 | 1.1 µM |  | 0.056 µM |  |  |  | IL-21_V53A (from UniProt Q9HBE4 32-152) (ligand)
 | 270 µM | 12 µM |  |  |  |  | IL-21_V46D (from UniProt Q9HBE4 32-152) (ligand)
 | 590 µM | 7.3 µM |  |  |  |  | IL-21_D44P (from UniProt Q9HBE4 32-152) (ligand)
54 µM | 240 µM |  | 0.24 µM |  |  |  | IL-21_L56F (from UniProt Q9HBE4 32-152) (ligand)
 | 560 µM |  | 0.99 µM |  |  |  | IL-21_V53N (from UniProt Q9HBE4 32-152) (ligand)
 | 580 µM | 60 µM | 35 µM |  |  |  | IL-21_I96D (from UniProt Q9HBE4 32-152) (ligand)
0.2 µM | 1.1 µM | 0.035 µM | 0.12 µM |  |  |  | IL-21_R34Q (from UniProt Q9HBE4 32-152) (ligand)
59 µM | 110 µM | 7 µM | 6.9 µM |  |  |  | IL-21_F79E (from UniProt Q9HBE4 32-152) (ligand)
260 µM | 270 µM |  | 20 µM |  |  |  | IL-21_R105A (from UniProt Q9HBE4 32-152) (ligand)
 | 550 µM | 67 µM | 5.4 µM |  |  |  | IL-21_L42H (from UniProt Q9HBE4 32-152) (ligand)
240 µM | 590 µM | 92 µM |  |  |  |  | IL-21_L103E (from UniProt Q9HBE4 32-152) (ligand)
0.058 µM | 1 µM | 0.021 µM | 0.08 µM |  |  |  | IL-21_A112P (from UniProt Q9HBE4 32-152) (ligand)
1.4 µM | 2.7 µM |  |  |  |  |  | IL-21_R34P (from UniProt Q9HBE4 32-152) (ligand)
 | 100 µM | 6.9 µM |  |  |  |  | IL-21_L56T (from UniProt Q9HBE4 32-152) (ligand)
0.17 µM | 85 µM | 0.026 µM |  |  |  |  | IL-21_S74H (from UniProt Q9HBE4 32-152) (ligand)
 | 2.6 µM |  | 0.041 µM |  |  |  | IL-21_S142I (from UniProt Q9HBE4 32-152) (ligand)
 |  |  |  | 46 µM |  |  | IL-21_V53H (from UniProt Q9HBE4 32-152) (ligand)
0.025 µM | 2.7 µM |  |  |  |  |  | IL-21_D66R (from UniProt Q9HBE4 32-152) (ligand)
10 µM | 1 µM | 0.55 µM |  |  |  |  | IL-21_K106N (from UniProt Q9HBE4 32-152) (ligand)
 | 2.8 µM | 0.027 µM | 0.057 µM |  |  |  | IL-21_E72T (from UniProt Q9HBE4 32-152) (ligand)
150 µM | 240 µM | 31 µM | 7.8 µM |  |  |  | IL-21_M39G (from UniProt Q9HBE4 32-152) (ligand)
